These results are taken from publication PMC3277882, “Structure and Kinetic Stability of the p63 Tetramerization Domain” (Journal of Molecular Biology, 2012).

Data set [1] deals with human p63 tetramerization domain lacking the H2 helix, p63(359–388) (human). The experiment in a line: crystal structure; p63(359–388) SeMet, sitting drop at 17 °C, 30% polyethylene glycol 400, 0.1 M Hepes (pH 7.5), 0.2 M Mg chloride; space group P1, one tetramer in the asymmetric unit; 1.9 Å.
Data set [2] has as its target human p63 full-length tetramerization domain variant, p63(356–411) (human). The experiment in a line: native MS; nESI-MS of subunit exchange: equal amounts of 12C-14N and 13C-15N protein mixed, 10 μM each (monomer concentration), 500 mM ammonium acetate (pH 6.9), 37 °C; half-life of tetramer dissociation from kinetic modeling.
Data set [3] addresses human p63 tetramerization domain, p63(359–402) (human). Kind of data set: crystal structure; p63(359–402), sitting drop at 17 °C, 10% polyethylene glycol 8000, 0.1 M Hepes (pH 7.5), 0.2 M Ca acetate; space group P422, one monomer in the asymmetric unit; 2.15 Å.
Data set [4] concerns the molecule itself. Kind of data set: native MS; nESI-MS of subunit exchange: equal amounts of 12C-14N and 13C-15N protein mixed, 10 μM each (monomer concentration), 500 mM ammonium acetate (pH 6.9), 37 °C; half-life of tetramer dissociation from kinetic modeling.
Data set [5] deals with the molecule itself. Described as above. The source holds these as a separate data set.

The molecule “human p63 tetramerization domain lacking the H2 helix, p63(359–388) (domain or fragment)” yielded a stoichiometry N in data set [1] of 4. For “human p63 full-length tetramerization domain variant, p63(356–411) (domain or fragment)”, in data set [2], the half-life of the tetramer, t1/2 worked out at 7 min and the stoichiometry N turned out to be 4. In turn, “human p63 tetramerization domain, p63(359–402) (domain or fragment)” came in with a stoichiometry N in data set [3] of 4.

B1: human p73 full-length tetramerization domain variant, p73(351–399) (domain or fragment)
chain: GSDEDTYYLQVRGRENFEILMKLKESLELMELVPQPLVDSYRQQQQLLQRP
notes: Gly-Ser dipeptide left at the N terminus by the cloning strategy (after thrombin cleavage); human p73 tetramerization domain, residues 351-399; In the subunit exchange experiment an unlabeled (12C-14N) and a uniformly 13C-15N labeled sample of the same construct were mixed; also called p73 tetramerization domain; not shown: His6, N-terminal, cleaved; lipoyl domain, N-terminal, cleaved
As for B1, in data set [4], the “stoichiometry N” value worked out at 4. Further, the “half-life of the tetramer, t1/2” value in data set [5] turned out to be 77 ± 5 min.
